Source: paper PMC10397247
Each block holds one binder with its values, some of them ahead of it.

How the values were obtained:
4H2553-AA = molecular target: T1, 4H2553-AA; test: two-hybrid library CCmax;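 also: natural log of median RNA to DNA barcode read ratio; higher means stronger binding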
T1 chain: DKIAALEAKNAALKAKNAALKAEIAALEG

4H2611-AA = molecular target: T2, 4H2611-AA; test: two-hybrid library CCmax; conditions: mean of both orientations;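 also: natural log of median RNA to DNA barcode read ratio; higher means stronger binding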
T2 chain: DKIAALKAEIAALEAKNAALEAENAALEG

4H2620-AA = molecular target: T3, 4H2620-AA; test: two-hybrid library CCmax; conditions: mean of both orientations;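 also: natural log of median RNA to DNA barcode read ratio; higher means stronger binding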
T3 chain: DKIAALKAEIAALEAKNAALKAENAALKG

4H2648-AA = molecular target: T4, 4H2648-AA; test: two-hybrid library CCmax; conditions: mean of both orientations;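 also: natural log of median RNA to DNA barcode read ratio; higher means stronger binding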
T4 chain: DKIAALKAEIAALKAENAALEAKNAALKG

4H2907-AA = molecular target: T5, 4H2907-AA; test: two-hybrid library CCmax; conditions: mean of both orientations;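 also: natural log of median RNA to DNA barcode read ratio; higher means stronger binding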
T5 chain: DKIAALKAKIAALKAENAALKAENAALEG

4H3056-AA = molecular target: T6, 4H3056-AA; test: two-hybrid library CCmax; conditions: mean of both orientations;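 also: natural log of median RNA to DNA barcode read ratio; higher means stronger binding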
T6 chain: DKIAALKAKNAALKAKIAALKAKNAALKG

4H3133-AA = molecular target: T7, 4H3133-AA; test: two-hybrid library CCmax; conditions: mean of both orientations
T7 chain: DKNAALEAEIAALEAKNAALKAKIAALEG

4H3162-AA = molecular target: T8, 4H3162-AA; test: two-hybrid library CCmax; conditions: mean of both orientations
T8 chain: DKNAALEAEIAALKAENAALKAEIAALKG

4H32-AA = molecular target: T9, 4H32-AA; test: two-hybrid library CCmax; conditions: mean of both orientations
T9 chain: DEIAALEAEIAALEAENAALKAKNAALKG

4H3378-AA = molecular target: T10, 4H3378-AA; test: two-hybrid library CCmax; conditions: mean of both orientations
T10 chain: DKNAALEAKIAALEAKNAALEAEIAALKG

4H340-AA = molecular target: T11, 4H340-AA; test: two-hybrid library CCmax; conditions: mean of both orientations
T11 chain: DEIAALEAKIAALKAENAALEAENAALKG

4H3413-AA = molecular target: T12, 4H3413-AA; test: two-hybrid library CCmax; conditions: mean of both orientations
T12 chain: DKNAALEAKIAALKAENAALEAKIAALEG

4H3588-AA = molecular target: T13, 4H3588-AA; test: two-hybrid library CCmax; conditions: mean of both orientations
T13 chain: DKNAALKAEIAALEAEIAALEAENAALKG

4H3606-AA = molecular target: T14, 4H3606-AA; test: two-hybrid library CCmax; conditions: mean of both orientations
T14 chain: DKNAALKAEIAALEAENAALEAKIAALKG

4H3631-AA = molecular target: T15, 4H3631-AA; test: two-hybrid library CCmax; conditions: mean of both orientations
T15 chain: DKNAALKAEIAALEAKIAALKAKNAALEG

4H3697-AA = molecular target: T16, 4H3697-AA; test: two-hybrid library CCmax; conditions: mean of both orientations
T16 chain: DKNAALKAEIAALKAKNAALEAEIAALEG

4H3718-AA = molecular target: T17, 4H3718-AA; test: two-hybrid library CCmax; conditions: mean of both orientations
T17 chain: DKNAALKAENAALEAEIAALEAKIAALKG

4H384-AA = molecular target: T18, 4H384-AA; test: two-hybrid library CCmax; conditions: mean of both orientations
T18 chain: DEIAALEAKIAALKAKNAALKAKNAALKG

4H3865-AA = molecular target: T19, 4H3865-AA; test: two-hybrid library CCmax; conditions: mean of both orientations
T19 chain: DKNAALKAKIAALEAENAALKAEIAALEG

4H697-AA = molecular target: T20, 4H697-AA; test: two-hybrid library CCmax; conditions: mean of both orientations
T20 chain: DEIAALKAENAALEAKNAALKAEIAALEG

4H982-AA = molecular target: T21, 4H982-AA; test: two-hybrid library CCmax; conditions: mean of both orientations
T21 chain: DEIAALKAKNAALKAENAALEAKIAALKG

4H3858-bA = molecular target: T22, 4H3858-bA; test: two-hybrid library CCNG1
T22 chain: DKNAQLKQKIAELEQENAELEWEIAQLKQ

4H3974-bA = molecular target: T23, 4H3974-bA; test: two-hybrid library CCNG1
T23 chain: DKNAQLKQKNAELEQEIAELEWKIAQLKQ

4H570-bA = molecular target: T24, 4H570-bA; test: two-hybrid library CCNG1
T24 chain: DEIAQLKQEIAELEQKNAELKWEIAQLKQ

4H850-bA = molecular target: T25, 4H850-bA; test: two-hybrid library CCNG1
T25 chain: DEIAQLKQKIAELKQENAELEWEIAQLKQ

4H2935-AA = molecular target: T26, 4H2935-AA; test: two-hybrid library CCmax
T26 chain: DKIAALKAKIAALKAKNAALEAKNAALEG

4H327-AA = molecular target: T27, 4H327-AA; test: two-hybrid library CCmax; conditions: mean of both orientations
T27 chain: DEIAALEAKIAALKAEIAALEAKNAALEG

4H3605-AA = molecular target: T28, 4H3605-AA; test: two-hybrid library CCmax; conditions: mean of both orientations
T28 chain: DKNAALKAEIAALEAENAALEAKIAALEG

4H3625-AA = molecular target: T29, 4H3625-AA; test: two-hybrid library CCmax; conditions: mean of both orientations
T29 chain: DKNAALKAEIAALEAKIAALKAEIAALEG

4H3664-AA = molecular target: T30, 4H3664-AA; test: two-hybrid library CCmax; conditions: mean of both orientations
T30 chain: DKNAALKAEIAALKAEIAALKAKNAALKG

4H369-AA = molecular target: T31, 4H369-AA; test: two-hybrid library CCmax; conditions: mean of both orientations
T31 chain: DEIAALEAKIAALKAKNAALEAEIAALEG

4H3922-AA = molecular target: T32, 4H3922-AA; test: two-hybrid library CCmax; conditions: mean of both orientations
T32 chain: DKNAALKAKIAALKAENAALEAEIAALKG

4H4033-AA = molecular target: T33, 4H4033-AA; test: two-hybrid library CCmax; conditions: mean of both orientations
T33 chain: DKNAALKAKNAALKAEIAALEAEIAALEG

4H481-AA = molecular target: T34, 4H481-AA; test: two-hybrid library CCmax; conditions: mean of both orientations
T34 chain: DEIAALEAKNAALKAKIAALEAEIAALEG

4H55-AA = molecular target: T35, 4H55-AA; test: two-hybrid library CCmax; conditions: mean of both orientations
T35 chain: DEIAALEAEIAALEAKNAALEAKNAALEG

4H662-AA = molecular target: T36, 4H662-AA; test: two-hybrid library CCmax; conditions: mean of both orientations
T36 chain: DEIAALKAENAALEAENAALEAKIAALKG

- interaction score (4H2553-AA): -1.66
- interaction score (4H2611-AA): -1.68
- interaction score (4H2620-AA): -1.7
- interaction score (4H2648-AA): -0.498
- interaction score (4H2907-AA): -1.73
- interaction score (4H3056-AA): -1.68
- interaction score (4H3133-AA): -2.05
- interaction score (4H3162-AA): -1.5
- interaction score (4H32-AA): -0.574
- interaction score (4H3378-AA): -1.98
- interaction score (4H340-AA): -0.687
- interaction score (4H3413-AA): -1.58
- interaction score (4H3588-AA): -1.93
- interaction score (4H3606-AA): 1.86
- interaction score (4H3631-AA): -1.73
- interaction score (4H3697-AA): -2.21
- interaction score (4H3718-AA): 1.12
- interaction score (4H384-AA): -1.95
- interaction score (4H3865-AA): -1.79
- interaction score (4H697-AA): -1
- interaction score (4H982-AA): 1.15
Binder: DKIAALEAKNAALKAKNAALKAEIAALEG [4H2553-AA]

- interaction score (4H3858-bA): 0.569
- interaction score (4H3974-bA): -0.665
- interaction score (4H570-bA): 1.16
- interaction score (4H850-bA): -0.964
Binder: DKNAQLKQKIAELEQENAELEWEIAQLKQ [4H3858-bA]

- interaction score (4H2935-AA): -1.28
- interaction score (4H327-AA): -0.77
- interaction score (4H3605-AA): -0.818
- interaction score (4H3625-AA): -1.65
- interaction score (4H3664-AA): -1.44
- interaction score (4H369-AA): -1.13
- interaction score (4H3922-AA): -1.89
- interaction score (4H4033-AA): -1.05
- interaction score (4H481-AA): -1.6
- interaction score (4H55-AA): 1.48
- interaction score (4H662-AA): -1.34
Binder: DKIAALKAKIAALKAKNAALEAKNAALEG [4H2935-AA]
